# ± gives the uncertainty stated by the source.
# Experiment: amyloid nucleation score (Sup35N fusion, yeast selection) (log enrichment); library NNK2; higher = more nucleation; inactive = no reads after selection
# How it was run: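 Peptides of 20 random codons fused to Sup35N were expressed in psi-negative yeast, induced 24 hours with 100 μM copper sulfate, then grown 7 days at 30°C on medium lacking adenine and uracil. Input and output plasmid inserts were Illumina-sequenced. Nucleation score is the DiMSum log enrichment of output over input reads, centred on the mode score of non-aggregating sequences, excluding sequences with under 100 input reads. Random libraries had three technical output replicates.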
row,Substance,amyloid nucleation score
1,GMSRYMHSIYD,1 ± 0.41
2,VLWLADLSR,0.113 ± 0.8
3,LCVLLHVTEKLKANSTLSCV,-0.317 ± 1.1
4,IYEQPG,0.012 ± 0.54
5,EHLCPYF,0.667 ± 0.46
6,RFEMRSGLKDKLDKVGS,inactive
7,YSLVLYWMWNCYRNRLDSGF,-0.185 ± 0.63
8,VFLSRVFNSF,-0.317 ± 0.79
9,KIEGHGFYYLFNWTA,-0.833 ± 0.78
10,YFNSLLPLLSPFYRPNIALL,-0.299 ± 0.56
11,EIWMSLSLNAEISYVYYSQS,-0.658 ± 0.28
12,CPVSAASLSNLFDVAHNGVR,5.354 ± 0.035
13,SFRRSE,-0.388 ± 1
14,TGMQMFMVVWLGQLDRSDTI,1.07 ± 0.28
15,FSRTSPIRQMIWKFLDCQPA,-0.978 ± 0.41
16,QLNIHLMNLRI,9.23 ± 0.056
17,VCCRDKMSHCRSAALNMVLL,3.49 ± 0.12
18,WFFKTAMWVITT,0.081 ± 1.1
19,KMYYGSKNTKSDLARTYGTL,1.61 ± 0.44
20,STVELEQYGSSARADYLVWR,0.58 ± 0.64
21,CRSATEPCVLSC,0.56 ± 0.74
22,TMSQYLGNRCTTNGYSFGVS,-0.272 ± 1.1
23,GTSDSWTNVGRHYLKGVRDG,-1.08 ± 0.55
24,CYLYFIEYWFSEAPYFTSER,-0.959 ± 1.1
25,VSNCLQGLYFCWSTGSRSRI,6.796 ± 0.03

row,Substance,amyloid nucleation score
1,CSKLAGKHVNISVGPLWRAG,0.183 ± 0.53
2,SNVSVYPTMWGRVVHRPYTW,0.032 ± 0.39
3,NCLLVLHFG,6.91 ± 0.073
4,NGVCQNCR,inactive
5,WIMSVGTAKWRDGQPSACRK,3.46 ± 0.13
6,QSPNHVHSLRPGLDQLSALP,-0.08 ± 0.39
7,LLASRWPRYLNSWRKSHVKV,-0.133 ± 1
8,TKTILRILSQFIYDSPLLEM,-0.19 ± 1.1
9,RIKYG,4.05 ± 0.065
10,KLVISAFPPIRNMVYTKCSK,-0.446 ± 1.1
11,NCNFSLEGHYCTFIKFHWTV,3.23 ± 0.097
12,NVFTNTLVN,8.667 ± 0.081
13,KAWTLVRHDVLLYV,-0.316 ± 0.44
14,DRIGIRYWG,1.34 ± 0.14
15,HWRFFCMDHNFILSVKDVVA,inactive
16,TLFIMC,0.074 ± 0.54
17,HWWLIIRDLKASRIDVRQWE,inactive
18,DPKVVMLVMTDMLNFG,5.71 ± 0.06
19,CRCISVPCVVFVV,-0.142 ± 0.79
20,DYFFPWENSGCIRRSLTVG,-1.35 ± 0.41
21,YFKRSGLSICRTGKLALGWH,inactive
22,LSVSCGVKCLEWADMMAHQV,-0.533 ± 0.54
23,DFCGRG,-0.152 ± 0.76
24,HKRHTLK,-0.809 ± 1.1
25,YGFENLVSILKFVQVNSKCG,1.38 ± 0.085

row,Substance,amyloid nucleation score
1,FLSDATAYH,inactive
2,KFGLPREYNSSVPVGPASCL,0.272 ± 0.41
3,MAFVDISSANFRKITRDLLP,0.82 ± 0.19
4,GRLSISDYIY,1.02 ± 0.61
5,CPFVATGDP,-0.849 ± 1.1
6,YVQSVHFSSMILQINPGSFN,4.94 ± 0.065
7,PGCHEVSKF,-1.14 ± 0.47
8,SRLTS,2.32 ± 0.066
9,NILTRYS,-0.013 ± 0.31
10,VMARYMFVK,0.064 ± 0.65
11,MLCGINGMMSSTLVCGRAII,-0.161 ± 0.65
12,RFDPNTAWNLTFSSSRCVAG,0.91 ± 0.27
13,FVSLWT,0.277 ± 0.45
14,GSMSTSASVRPFWRYVFLH,inactive
15,RSSQTPFWEIGSMLLSKMCA,0.65 ± 0.42
16,RYFDDWVNSRTVKCGWDWYA,0.641 ± 0.17
17,AVLPSIDYGCEPRL,0.136 ± 0.5
18,LGYGWFNVLTYTTI,-0.209 ± 0.65
19,ADYGVGSRFFVALFSNVFGV,8.15 ± 0.071
20,LTGWMFISWSLTIPRPPTIE,-0.849 ± 1.1
21,SYHVVCFVYVLVTFLLWCSH,2.22 ± 0.14
22,RLSVAFRRVRDRYVLLIFLP,0.548 ± 0.55
23,NFCSMRSKVTCNSDDKFWNH,-1.13 ± 1.1
24,TRVFTSWFVV,0.342 ± 0.65
25,PVFRFTSGPLDKNCVYRVN,0.564 ± 0.57

row,Substance,amyloid nucleation score
1,NQNCLHTTCVCSRIVSDAAV,6.483 ± 0.038
2,AISGWCNMNCKLGKQWDYLV,1.25 ± 0.66
3,LGDERDADQIPSGIYG,1.26 ± 0.27
4,TLFQFWKYLVSTTCIML,3.18 ± 0.11
5,GCSVCDMTF,0.073 ± 0.53
6,CAGRFRCFLMSCIDCKLGVL,-0.763 ± 1
7,CCNQEVLD,0.575 ± 0.66
8,ACFSNMDCPGGFVHVFALYG,inactive
9,LLHYGGSFLAAKFRRMSCNE,0.811 ± 0.66
10,NIDICDVWFMNCLYIILVAQ,5.192 ± 0.031
11,IEVRRKPSLDLKLDGEGIVR,1.37 ± 0.32
12,CWVIKGRAKCV,-0.26 ± 1
13,KFPYVHLVFLARIYSF,-0.536 ± 1.1
14,DELDVFG,-0.893 ± 0.44
15,PYWYYVFCS,-0.689 ± 0.49
16,ILGDRSRSS,0.388 ± 0.62
17,RNLYGHISVIFCGDNFDGSC,7.15 ± 0.077
18,YRLRMIFSMGMNNYVARWFH,-1.5 ± 1.1
19,GFDLNFRYA,4.43 ± 0.077
20,YEIFGRTNPMMVDKNNAIWV,-0.691 ± 0.42
21,ITFRTYILPDSWIRPRTFEK,3.29 ± 0.054
22,VHRLRMGRVWFDKDSDVVGK,0.148 ± 1
23,NNWYNTYYKSIKASQPRSSR,-0.797 ± 1.1
24,IMNSQVVGSFHA,-0.357 ± 0.37
25,AGLLPENYFSCILGINVVIF,3.13 ± 0.065

row,Substance,amyloid nucleation score
1,VHIYQTPPLKCIWSMDKTPA,-0.442 ± 1
2,QVLTMNRLWVVPPAHYCVVG,0.84 ± 0.53
3,VINRMCIVWPYMSSYWEWNV,9.126 ± 0.06
4,VGYFLSPMTVQLN,inactive
5,YRFYSLRMYKFWWLTLTLCL,-1.12 ± 1.1
6,NFHLSVRSDSYVL,3.14 ± 0.12
7,NGTINALFSDEAGWSSCGYL,0.2 ± 0.34
8,RGSYMVPWHVERIIGNSRVS,-0.899 ± 0.23
9,SNVLFWI,inactive
10,LYWNVAGLGPQYKSLCLGFR,-0.753 ± 0.56
11,SMHGSNVIWESFILRQEHDV,-0.268 ± 0.31
12,GCHVRSFK,0.158 ± 0.31
13,NRRLRHIWRNNSLTSKN,-0.279 ± 0.25
14,YEFCVAFFDRNNCNREP,-1.6 ± 0.75
15,FGTYSI,0.389 ± 0.74
16,NSCSWDSIITLVVQWLARQH,6.342 ± 0.039
17,VMRAMFSRAPFGPRNSSPLN,0.417 ± 0.37
18,YVTCRCRYYLSFVIPIFWKR,-0.657 ± 0.25
19,LVYCSLLNLILWMSAYI,-0.518 ± 0.45
20,WCCLYDYFVDTGVLFIQDGS,-0.186 ± 0.2
21,FNVLIACWGYKDNFNVYSCE,5.844 ± 0.035
22,PVCFGIEVYDVRFVASNVPG,0.313 ± 0.48
23,FILCMTSWDYLDDCRFLFEL,1.03 ± 0.25
24,VGFHEDNMEVR,inactive
25,IKQSYTYNPK,1.87 ± 0.12

row,Substance,amyloid nucleation score
1,CMLCARLHH,4.13 ± 0.056
2,APTQDTLEFRHISFEVVWRT,2.84 ± 0.18
3,FWVVIVAHSVSWLLLTWQLE,0.553 ± 0.65
4,MDSMWPSVGGALKSRSGVFR,-0.126 ± 0.39
5,VANEDDRYYTYGADWERLLL,0.844 ± 0.56
6,MNVGCIDQFYCMWRCNIFWP,7.678 ± 0.055
7,NRGSGSAGMVSLLNNSWRWA,1.48 ± 0.43
8,SGVHNYSARVG,-0.442 ± 0.46
9,HLCSCTMWGPHNRGFYYHWC,inactive
10,QHSLAMSSHKLSTTVEESWP,0.818 ± 0.45
11,VGLFNVTLAFVLYGSSRLVL,4.12 ± 0.057
12,YMKVGFARWMGRPG,3.89 ± 0.06
13,WKFSYDFSASASGHHALVNK,3.22 ± 0.13
14,HLRWARRIGVCTVFYLSRIC,0.483 ± 0.57
15,WAGRDHFWNIIYLDLSFVGE,3.77 ± 0.12
16,FLYLIMKGPLAVKYCIKSLG,-0.545 ± 0.76
17,SYFYPCLRNLYLPLWWRSHS,-0.515 ± 0.38
18,SMMTVADP,-0.529 ± 0.79
19,NASIQR,0.564 ± 0.36
20,FREVRRF,0.631 ± 0.41
21,AFESKAPGRSSLVGIACSYS,-0.48 ± 0.48
22,FLSVEENGLTDVTVMGWFV,0.19 ± 1.1
23,FEVYKANDIEIYYAVCEMGV,-1.34 ± 0.26
24,RQMMWRYEE,0.3 ± 0.32
25,RSSRVEYSCLDGRMRELRGS,-0.443 ± 0.48

row,Substance,amyloid nucleation score
1,MFLKVSLVGNMVSEKPGRSS,3.21 ± 0.15
2,PFDFAGA,2.91 ± 0.087
3,DRSAIMVRCNQIFHISPIGF,6.31 ± 0.064
4,VKAWYWLKARFVLWTVGARL,-0.093 ± 0.79
5,RTVDELTRRWWSKRRMGMSW,2.03 ± 0.25
6,DGVFRCKKRSSNFSDKSVCM,0.641 ± 0.74
7,RMNSYKLSKVYNT,-0.225 ± 1
8,KNFSCVN,0.706 ± 0.74
9,NPLYEGSFFWGWKFIDFRQH,0.131 ± 1
10,MRNPYFRHCRFITRRVVFID,inactive
11,FCSHMLARTYLKCGREDR,-0.337 ± 1
12,FSLYN,-1.64 ± 0.75
13,YASCLSSKLCDEDNPTYW,-0.488 ± 0.39
14,RTEMHYARQRHELDVPVWL,0.25 ± 0.49
15,YKWSQASTNGHARISSAQQS,2.46 ± 0.11
16,DAMRVASEHIIVTAAAS,2.72 ± 0.12
17,KAKIATKVSLFLLSGYVDLQ,-0.356 ± 0.65
18,NWRTCLALNCLTDPAKYLIN,-0.725 ± 0.76
19,HQVLYTIAISFTIELAVIIA,inactive
20,YSIIFWCFKWYLIQGWLECA,inactive
21,GIYVEEWGHSVPALRWIDKS,0.309 ± 0.8
22,LRLFNLKQKKNRKNWRMFAG,-0.979 ± 0.6
23,WWRNFD,-0.526 ± 0.76

# — the supplement of paper PMC12042874
